Reference: US20080152645A1 (ARMAGEN TECHNOLOGIES, published 2008)

Biological target: T1, Aβ^1-40 amyloid peptide (human, UniProt P05067 672-711)
T1 construct: domain: Aβ^1-40; Plated on 96-well plates in ELISA and IRMA; also called Aβ^1-40 peptide; Aβ^1-40 aggregates
Experiment: ELISA on plated Aβ^1-40, COS cell medium, detection with biotinylated 9E10 MAb
Source text: FIG. 29. […] The mAβScFv binds to the amyloid peptide, and the 9E10 anti-c-myc MAb binds to the […] epitope fused to the carboxyl terminus of the protein (FIG. 9). The 9E10 MAb is biotinylated, which enables detection with a conjugate of streptavidin and peroxidase. Medium conditioned by COS cells that were transfected with pCD-mAβScFv produced a high signal in the assay, whereas medium from COS cells exposed only to Lipofectamine (LIPO) produced no signal.
The binding of the mAβScFv to the Aβ¹⁻⁴⁰ amyloid peptide was verified with a specific ELISA. The Aβ¹⁻⁴⁰ amyloid peptide was plated in 96-well plates, followed by the addition of the media conditioned by COS cells transfected with the pCD-mAβScFv plasmid and Lipofectamine-2000. The anti-A, ScFv contains a C-terminal 10-amino acid c-myc epitope, which is recognized by the 9E10 MAb (FIG. 29A). The 9E10 MAb is biotinylated, which enables quantitation of the […] binding to Aβ¹⁻⁴⁰ by a peroxidase detection system and A492 readings (FIG. 29A).

binding result: binds
B1: mAβScFv, murine single chain Fv antibody against the Aβ peptide, secreted by COS cells transfected with pCD-mAβScFv (scFv)
scFv: QVQLQQSGAELVKPGATVKLSCKASGYSFNSHYIYWVKQRPGQGLEWIGEINPSNGAMNFNEKFKNKATLTVDKSSSTAYMQLSSLTSEDSAVYYCVRDPTSYWGQGTLVTVSAAKTTPKLEEGEFSEARVDIVMTQTPLSLPVSLGDQASISCRSSQSLVHSYGNTYLHWYLQKPGQSPKLLIYKVSNRFSGVPDRFSGSGSGTDFTLKISRVEAEDLGVYFCSQSTHVPYTFGGGTKLEIKRADAAAAGSEQKLISEEDL
notes: Tested as COS cell conditioned medium; No His tag in this construct; VL has Ile at position 2; also called anti-Aβ ScFv; anti-mAβScFv
